{"source": "paper PMC8431773", "about": "“Novel Cold-Adapted Recombinant Laccase KbLcc1 from Kabatiella bupleuri G3 IBMiP as a Green Catalyst in Biotransformation” (International Journal of Molecular Sciences, 2021)", "proteins": {"B1": {"name": "KbLcc1 (Aureobasidium bupleuri) (protein)", "chain": "MHLQKLSGLCLLAFASVSWADAVPGDRYLWGADRMGKMVRRATTTSKASSTTAKASTSSVKTSSVSSASSKSSSNIVASVSSSPPASSASSASSTSSLVADAACTHGPNSRACWGNGYSIKTDFDLKHPTTGNTVTYNLEITNTTCNPDGNGDMPCYLINNQFPGPTIVADWGDKVIINVKNSLQNNGTSLHWHGVRQLSSVGSDGVGGITECPIAPGQSRTYSFLATQFGTSWYHSHYSSQYGMGVVGQVVINGPSSSNYDIDLGTFPITDLYYGLANNVNEMTLHNLQNNLPPPDGSNILVNGKGKSAKGGSYSQMSLTKGKKHRLRLINTSVDNAVRVKLDGHSFTVMSADFIPIKPLTNQGWILLAVGQRYDVVFTANQTPGNYFFRAEVATDCFSGNTGKGRALFTYSEVTAAEPTDSNEVAPTNGCTELNTVPYWTQAVDQSQYAAQVKTLKTGVAPGLTTNGQNFALWNLDTRAMMVRWDRPTIQYVFEGNTSYPDPYAVIEIPTEGTWTYWLIQMGPQNPPLPHPIHLHGHDFFVLGSGAGTFDATTAVLNFANPPRRDTSILPGLGWLLISFPANNPGIWLMHCHIAWHISEGLGVQFIEAKNSIAMPDKTTFNAECDSWRTYSKNMAWPQIDSGL", "notes": "full ORF of 649 residues (1938 bp, intron removed) cloned from its own ATG behind alpha-factor secretion signal (pPINKalpha-HF); tag not given; secreted from Pichia pastoris (PichiaPink strain 1)"}}, "assay_in_all_cases": "purified protein", "key": {"purified protein [1]": {"substrate": "COc1ccccc1O", "details": "pH 5.5, 30 °C, 2.5-20.0 mM substrate"}, "purified protein [2]": {"substrate": "CCn1c(=NN=c2sc3cc(S(=O)(=O)O)ccc3n2CC)sc2cc(S(=O)(=O)O)ccc21", "assay_type": "biochemical, Aureobasidium bupleuri", "details": "pH 3.5, 30 °C, 0.2-4.0 mM substrate"}, "purified protein [3]": {"substrate": "COc1cc(/C=C/C(=O)O)cc(OC)c1O", "assay_type": "biochemical, Aureobasidium bupleuri", "details": "pH 6.5 (abstract prints optimum pH 6.0), 30 °C, 3.0-150 µM substrate"}, "purified protein [4]": {"substrate": "COc1cc(C=NN=Cc2cc(OC)c(O)c(OC)c2)cc(OC)c1O", "assay_type": "biochemical, Aureobasidium bupleuri", "details": "pH 7.0, 30 °C, 5.5-40.0 µM substrate"}}}
{"protein": "B1", "values": [{"measurement": "Km", "setting": "purified protein [1]", "value": 13280, "unit": "µM"}, {"measurement": "Vmax", "setting": "purified protein [1]", "value": 4.7, "unit": "µmol/min/mg"}, {"measurement": "kcat", "setting": "purified protein [1]", "value": 5.45, "unit": "s⁻¹"}, {"measurement": "kcat/Km", "setting": "purified protein [1]", "value": 410, "unit": "M⁻¹ s⁻¹"}, {"measurement": "Km", "setting": "purified protein [2]", "value": 580, "unit": "µM"}, {"measurement": "Vmax", "setting": "purified protein [2]", "value": 34.2, "unit": "µmol/min/mg"}, {"measurement": "kcat", "setting": "purified protein [2]", "value": 39.6, "unit": "s⁻¹"}, {"measurement": "kcat/Km", "setting": "purified protein [2]", "value": 68400, "unit": "M⁻¹ s⁻¹"}, {"measurement": "Km", "setting": "purified protein [3]", "value": 15, "unit": "µM"}, {"measurement": "Vmax", "setting": "purified protein [3]", "value": 1.39, "unit": "µmol/min/mg"}, {"measurement": "kcat", "setting": "purified protein [3]", "value": 1.61, "unit": "s⁻¹"}, {"measurement": "kcat/Km", "setting": "purified protein [3]", "value": 109000, "unit": "M⁻¹ s⁻¹"}, {"measurement": "Km", "setting": "purified protein [4]", "value": 21, "unit": "µM"}, {"measurement": "Vmax", "setting": "purified protein [4]", "value": 33, "unit": "µmol/min/mg"}, {"measurement": "kcat", "setting": "purified protein [4]", "value": 38.3, "unit": "s⁻¹"}, {"measurement": "kcat/Km", "setting": "purified protein [4]", "value": "1.81e+06", "unit": "M⁻¹ s⁻¹"}]}
